{"source": "paper PMC9475456", "about": "“DDX56 transcriptionally activates MIST1 to facilitate tumorigenesis of HCC through PTEN-AKT signaling”", "binders": {"B1": {"name": "MIST1 promoter -160 to -117 (dsDNA)", "DNA 1": "GCCACCTGGTCCGGGAGCCCCAGGCGCCGGCCTCCCGCCCGCCC", "DNA 2": "GGGCGGGCGGGAGGCCGGCGCCTGGGGCTCCCGGACCAGGTGGC"}}, "biological_target": "T1, DDX56 (His-DDX56) (human, UniProt Q9NY93 1-547)", "T1 sequence": "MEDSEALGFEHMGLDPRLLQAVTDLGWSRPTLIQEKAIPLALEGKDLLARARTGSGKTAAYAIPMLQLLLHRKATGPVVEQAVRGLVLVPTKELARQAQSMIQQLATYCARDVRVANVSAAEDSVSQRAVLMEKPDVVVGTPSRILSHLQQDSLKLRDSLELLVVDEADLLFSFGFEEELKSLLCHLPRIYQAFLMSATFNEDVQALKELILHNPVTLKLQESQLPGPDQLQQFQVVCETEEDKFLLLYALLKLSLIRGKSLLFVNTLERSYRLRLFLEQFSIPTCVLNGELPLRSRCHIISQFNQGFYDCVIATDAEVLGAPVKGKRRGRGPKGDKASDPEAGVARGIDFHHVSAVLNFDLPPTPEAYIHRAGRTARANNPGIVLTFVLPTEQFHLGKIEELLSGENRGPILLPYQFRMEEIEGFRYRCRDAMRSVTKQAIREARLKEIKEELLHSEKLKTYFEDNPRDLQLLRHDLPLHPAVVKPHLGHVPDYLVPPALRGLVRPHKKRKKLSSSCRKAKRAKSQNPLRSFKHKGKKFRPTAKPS", "test": "EMSA; 5 mM Mg2+; poly(dI-dC); supershifted by DDX56 antibody; LightShift EMSA kit, 20 uL: 2 uL 10x binding buffer, 1 uL 50% glycerol, 1 uL 100 mM MgCl2, 1 ug/uL poly(dI-dC), 1 uL 1% NP-40, 2 ug protein; supershift at room", "conditions": "protein: commercial; tags: N-terminal His; label: 5' biotin; blunt"}
{"binder": "B1", "values": [{"measurement": "binding result", "result": "binds"}]}
